In the supplement of paper PMC10065799, “High-throughput profiling of sequence recognition by tyrosine kinases and SH2 domains using bacterial peptide display” (eLife, 2023):

Columns and labels:
[1] = biological target: Grb2 SH2 (UniProt P62993); experiment: SH2 binding enrichment of the phosphorylated peptide, bacterial display (enrichment ratio); higher = better substrate or ligand; peptides without Tyr show the background
[2] = biological target: SHP2-C SH2; experiment: as above
[3] = biological target: c-Src SH2; experiment: as above
[4] = test system: AncSZ; experiment: phosphorylation enrichment, bacterial display (enrichment ratio); higher = better substrate or ligand; peptides without Tyr show the background
[5] = biological target: FGFR1 (UniProt P11362); experiment: as above
[6] = biological target: Fyn (UniProt P06241); experiment: as above
[7] = test system: c-Abl (mouse); experiment: as above
[8] = biological target: EPHB2 (UniProt P29323); experiment: as above
[9] = biological target: Fes (UniProt P07332); experiment: as above
[10] = biological target: MERTK (UniProt Q12866); experiment: as above
[11] = biological target: EPHB1 (UniProt P54762); experiment: as above
[12] = biological target: FGFR3 (UniProt P22607); experiment: as above
[13] = test system: c-Src; experiment: as above
[14] = test system: Fer (mouse); experiment: as above
[15] = biological target: Hck (UniProt P08631); experiment: as above
[16] = biological target: Jak2 (UniProt O60674); experiment: as above
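Wherever SH2 binding enrichment of the phosphorylated peptide, bacterial display is given: peptide library displayed on the E. coli surface as eCPX fusions, selected cells deep-sequenced, score is each peptide's frequency after selection divided by its frequency in the input.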
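Wherever phosphorylation enrichment, bacterial display is given: 11-residue human phosphosite peptides and single-mutation variants displayed on the E. coli surface, counted by deep sequencing, each peptide's frequency after selection divided by its frequency in the unselected input library; frequency after pTyr selection over input frequency; kinase dosed for 20-30% of maximal phosphorylation in three min.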

Chain of FGFR3 (P22607 whole entry, looked up): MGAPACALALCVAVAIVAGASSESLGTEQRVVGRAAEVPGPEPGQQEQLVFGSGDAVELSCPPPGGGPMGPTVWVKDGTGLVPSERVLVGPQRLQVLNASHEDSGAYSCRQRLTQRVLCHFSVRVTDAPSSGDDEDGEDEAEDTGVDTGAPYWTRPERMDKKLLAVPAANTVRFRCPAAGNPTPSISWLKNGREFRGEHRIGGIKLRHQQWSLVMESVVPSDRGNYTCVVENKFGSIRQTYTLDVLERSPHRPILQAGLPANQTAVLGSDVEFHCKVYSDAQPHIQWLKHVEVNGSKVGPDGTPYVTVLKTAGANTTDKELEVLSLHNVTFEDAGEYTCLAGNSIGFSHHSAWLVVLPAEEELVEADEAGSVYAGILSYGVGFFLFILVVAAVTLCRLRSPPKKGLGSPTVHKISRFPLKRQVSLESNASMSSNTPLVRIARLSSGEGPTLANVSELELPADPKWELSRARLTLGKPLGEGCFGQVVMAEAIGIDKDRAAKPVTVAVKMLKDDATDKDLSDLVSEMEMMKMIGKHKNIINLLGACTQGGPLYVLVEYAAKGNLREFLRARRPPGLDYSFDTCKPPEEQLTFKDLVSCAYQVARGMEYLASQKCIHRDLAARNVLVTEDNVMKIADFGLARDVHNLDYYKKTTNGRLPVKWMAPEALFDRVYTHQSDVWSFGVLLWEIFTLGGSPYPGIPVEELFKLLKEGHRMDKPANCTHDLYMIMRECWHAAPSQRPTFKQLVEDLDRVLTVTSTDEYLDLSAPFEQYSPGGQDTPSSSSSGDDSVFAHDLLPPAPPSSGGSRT
Chain of Jak2 (O60674 whole entry, looked up, the tested form may be a part): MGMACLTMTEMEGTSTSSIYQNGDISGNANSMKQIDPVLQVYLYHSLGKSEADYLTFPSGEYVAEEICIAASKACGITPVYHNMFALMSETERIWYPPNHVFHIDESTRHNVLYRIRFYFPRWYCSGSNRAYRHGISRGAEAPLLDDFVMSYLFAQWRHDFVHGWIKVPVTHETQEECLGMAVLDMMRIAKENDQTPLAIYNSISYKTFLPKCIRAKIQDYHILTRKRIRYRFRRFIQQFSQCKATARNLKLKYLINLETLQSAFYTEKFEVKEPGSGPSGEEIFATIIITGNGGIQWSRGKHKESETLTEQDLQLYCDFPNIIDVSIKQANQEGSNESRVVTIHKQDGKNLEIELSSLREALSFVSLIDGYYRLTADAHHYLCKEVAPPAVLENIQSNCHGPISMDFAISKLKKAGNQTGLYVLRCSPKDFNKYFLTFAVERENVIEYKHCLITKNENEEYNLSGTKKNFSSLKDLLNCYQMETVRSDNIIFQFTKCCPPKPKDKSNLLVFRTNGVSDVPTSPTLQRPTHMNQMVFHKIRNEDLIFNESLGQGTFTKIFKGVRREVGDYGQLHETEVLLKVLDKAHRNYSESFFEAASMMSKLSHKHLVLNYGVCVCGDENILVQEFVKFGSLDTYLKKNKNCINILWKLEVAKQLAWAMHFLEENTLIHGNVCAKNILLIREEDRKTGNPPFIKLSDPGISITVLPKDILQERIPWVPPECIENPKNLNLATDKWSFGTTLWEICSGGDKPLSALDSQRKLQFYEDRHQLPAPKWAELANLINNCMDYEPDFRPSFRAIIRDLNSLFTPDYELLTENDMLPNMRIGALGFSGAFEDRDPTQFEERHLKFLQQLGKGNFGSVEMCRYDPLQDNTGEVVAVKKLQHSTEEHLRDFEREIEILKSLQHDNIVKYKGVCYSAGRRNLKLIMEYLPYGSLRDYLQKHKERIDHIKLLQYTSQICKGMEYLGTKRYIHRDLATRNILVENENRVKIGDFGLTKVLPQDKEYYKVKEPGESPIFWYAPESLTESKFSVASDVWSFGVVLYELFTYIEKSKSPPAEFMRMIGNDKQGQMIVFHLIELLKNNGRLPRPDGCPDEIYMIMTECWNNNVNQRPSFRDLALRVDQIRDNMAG
Chain of Fyn (P06241 whole entry, looked up): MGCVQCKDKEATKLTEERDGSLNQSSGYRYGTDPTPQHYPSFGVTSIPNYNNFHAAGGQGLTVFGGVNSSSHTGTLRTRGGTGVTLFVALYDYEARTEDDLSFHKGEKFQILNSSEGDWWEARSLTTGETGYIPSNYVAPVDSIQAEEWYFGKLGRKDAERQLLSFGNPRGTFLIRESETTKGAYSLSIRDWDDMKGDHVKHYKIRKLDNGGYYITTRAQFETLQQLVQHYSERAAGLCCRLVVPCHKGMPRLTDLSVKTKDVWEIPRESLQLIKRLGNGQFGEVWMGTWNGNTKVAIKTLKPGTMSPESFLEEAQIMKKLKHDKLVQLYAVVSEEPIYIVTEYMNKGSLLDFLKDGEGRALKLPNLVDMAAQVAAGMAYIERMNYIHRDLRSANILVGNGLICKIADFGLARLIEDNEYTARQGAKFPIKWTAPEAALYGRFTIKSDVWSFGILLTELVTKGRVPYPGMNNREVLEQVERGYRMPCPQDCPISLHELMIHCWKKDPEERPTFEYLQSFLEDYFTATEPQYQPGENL
Chain of EPHB2 (P29323 whole entry, looked up): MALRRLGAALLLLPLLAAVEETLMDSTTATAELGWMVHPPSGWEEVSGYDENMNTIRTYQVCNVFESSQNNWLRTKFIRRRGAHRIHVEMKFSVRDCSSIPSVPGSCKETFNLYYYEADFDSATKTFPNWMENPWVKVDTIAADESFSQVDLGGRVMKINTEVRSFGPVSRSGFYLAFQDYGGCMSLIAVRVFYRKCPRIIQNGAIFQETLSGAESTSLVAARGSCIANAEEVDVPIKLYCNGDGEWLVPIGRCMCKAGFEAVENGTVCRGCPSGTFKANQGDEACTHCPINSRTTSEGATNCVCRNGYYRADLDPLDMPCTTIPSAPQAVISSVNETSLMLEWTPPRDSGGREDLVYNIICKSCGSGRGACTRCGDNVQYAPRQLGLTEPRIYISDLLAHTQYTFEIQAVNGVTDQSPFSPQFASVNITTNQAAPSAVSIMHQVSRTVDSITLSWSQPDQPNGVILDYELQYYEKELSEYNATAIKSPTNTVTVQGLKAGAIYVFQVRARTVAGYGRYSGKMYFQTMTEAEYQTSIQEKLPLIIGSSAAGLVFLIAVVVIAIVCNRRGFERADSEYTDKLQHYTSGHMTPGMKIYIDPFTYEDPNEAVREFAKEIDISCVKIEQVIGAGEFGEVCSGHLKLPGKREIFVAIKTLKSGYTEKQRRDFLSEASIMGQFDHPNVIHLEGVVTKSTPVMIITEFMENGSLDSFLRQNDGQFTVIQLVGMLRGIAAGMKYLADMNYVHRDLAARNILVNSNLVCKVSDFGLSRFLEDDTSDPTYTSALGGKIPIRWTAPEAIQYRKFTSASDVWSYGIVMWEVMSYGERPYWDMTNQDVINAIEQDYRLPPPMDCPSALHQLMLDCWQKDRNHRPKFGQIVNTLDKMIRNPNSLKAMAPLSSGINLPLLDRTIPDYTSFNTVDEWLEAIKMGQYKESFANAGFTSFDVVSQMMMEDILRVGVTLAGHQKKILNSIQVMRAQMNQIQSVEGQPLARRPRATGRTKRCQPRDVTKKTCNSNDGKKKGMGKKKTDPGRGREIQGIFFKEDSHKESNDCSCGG
Chain of Fes (P07332 whole entry, looked up): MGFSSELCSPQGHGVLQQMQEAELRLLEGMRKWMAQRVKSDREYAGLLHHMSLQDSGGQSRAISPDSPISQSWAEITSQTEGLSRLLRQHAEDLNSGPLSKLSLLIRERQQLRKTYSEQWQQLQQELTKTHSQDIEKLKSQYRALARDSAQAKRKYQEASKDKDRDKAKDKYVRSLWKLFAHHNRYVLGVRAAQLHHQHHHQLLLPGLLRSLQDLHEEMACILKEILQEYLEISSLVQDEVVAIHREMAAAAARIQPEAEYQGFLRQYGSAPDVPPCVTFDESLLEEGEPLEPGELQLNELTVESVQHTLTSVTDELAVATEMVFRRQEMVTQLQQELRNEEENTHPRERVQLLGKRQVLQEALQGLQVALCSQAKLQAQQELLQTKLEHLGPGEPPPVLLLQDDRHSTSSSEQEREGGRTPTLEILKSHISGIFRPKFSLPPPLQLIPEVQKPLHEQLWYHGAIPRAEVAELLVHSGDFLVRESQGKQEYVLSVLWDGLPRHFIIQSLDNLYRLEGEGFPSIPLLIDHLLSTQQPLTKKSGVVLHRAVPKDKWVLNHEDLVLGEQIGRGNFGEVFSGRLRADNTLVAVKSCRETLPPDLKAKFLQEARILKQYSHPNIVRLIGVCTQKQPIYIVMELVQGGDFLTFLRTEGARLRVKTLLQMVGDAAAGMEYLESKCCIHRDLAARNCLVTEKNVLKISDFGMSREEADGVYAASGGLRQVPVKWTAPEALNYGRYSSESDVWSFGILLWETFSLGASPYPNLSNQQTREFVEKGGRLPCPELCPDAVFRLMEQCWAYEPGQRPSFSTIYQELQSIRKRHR
Chain of Hck (P08631 whole entry, looked up): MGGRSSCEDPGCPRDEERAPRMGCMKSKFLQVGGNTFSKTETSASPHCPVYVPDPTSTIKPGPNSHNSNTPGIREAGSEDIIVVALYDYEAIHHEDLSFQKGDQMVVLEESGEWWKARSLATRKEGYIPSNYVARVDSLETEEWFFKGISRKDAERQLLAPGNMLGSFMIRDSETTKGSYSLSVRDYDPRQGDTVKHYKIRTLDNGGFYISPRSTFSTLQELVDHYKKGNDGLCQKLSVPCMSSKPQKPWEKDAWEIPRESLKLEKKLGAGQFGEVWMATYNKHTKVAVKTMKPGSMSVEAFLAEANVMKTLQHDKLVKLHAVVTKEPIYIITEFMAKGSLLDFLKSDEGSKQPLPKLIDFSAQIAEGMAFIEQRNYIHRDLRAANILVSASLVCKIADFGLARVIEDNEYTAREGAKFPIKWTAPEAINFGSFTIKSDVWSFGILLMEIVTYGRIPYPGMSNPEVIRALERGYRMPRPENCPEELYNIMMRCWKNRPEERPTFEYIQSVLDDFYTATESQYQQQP

Sequence	SH2 binding enrichment [1]	SH2 binding enrichment [2]	SH2 binding enrichment [3]	phosphorylation enrichment [4]	phosphorylation enrichment [5]	phosphorylation enrichment [6]	phosphorylation enrichment [7]	phosphorylation enrichment [8]	phosphorylation enrichment [9]	phosphorylation enrichment [10]	phosphorylation enrichment [11]	phosphorylation enrichment [12]	phosphorylation enrichment [13]	phosphorylation enrichment [14]	phosphorylation enrichment [15]	phosphorylation enrichment [16]
QRRLVYFEGGA [RYR1_Y245_YF]	1.58	0.944	0.727	3.89	1.34	1.02	0.912	0.995	1.39	0.531	1.18	0.902	0.376	1.33	1.13	0.825
QSGGQYSSQGL [TNNI3K_Y788_A785G]	0.787	0.446	0.577	0.655	0.486	0.488	0.676	0.434	0.779	0.4	0.506	0.854	0.495	0.401	0.72	0.835
QSSALYEDCFL [ASS1_Y83_R86C_YF]	1.13	0.794	0.831	1.92	0.852	3.02	1.15	7.25	2.83	4.12	10.4	0.785	4.69	16.4	2.28	1.96
QTSSNYDDAMQ [ZNF281_Y531_I527T]	0.823	0.716	0.794	1.06	0.86	0.756	0.476	1.14	1.02	0.58	0.825	0.975	0.44	0.741	0.57	0.884
QWRTKYETDAI [MYH7_Y1375]	0.849	0.521	0.542	0.971	0.4	0.643	1.04	0.432	1.36	0.545	0.663	0.624	0.528	0.543	0.355	1.74
RAMPVYKEAEH [TP63_Y231_K233E]	0.98	0.58	0.508	1.02	0.763	0.511	0.665	0.67	1.01	0.503	0.561	0.663	0.563	0.602	0.664	0.832
RASSVYTRSTG [CCR5_Y339]	0.809	0.489	0.472	0.651	0.48	0.608	0.721	0.552	1.5	1.21	0.591	0.47	0.875	0.552	0.741	0.655
RAWPPYTVAAD [ANKZF1_Y572_R569W]	1.08	0.697	0.556	0.884	0.573	0.571	0.737	0.517	1.11	0.475	0.678	0.589	0.618	0.631	0.597	0.683
RCQDLYSARDL [SART1_Y249_R245C]	0.825	0.605	0.391	1.95	0.876	4.61	1.41	1.06	1.76	4.7	1.63	1.22	6.42	2.59	9.83	1.97
RDWSHYFKIIE [KRT18_Y129]	0.776	0.436	0.479	1.46	0.687	0.793	0.823	1.08	1.72	0.296	0.824	0.997	0.705	0.412	0.57	1.35
REATAYLHGRL [AGXT_Y297_A295T]	0.794	0.571	0.483	0.665	0.534	0.595	0.63	0.662	0.793	0.374	0.539	0.533	0.521	0.615	0.488	0.871
REEKNDKLKET [BCLAF1_Y459_Y459D]	1.16	0.747	0.552	1.32	0.868	0.833	0.596	0.606	1.11	0.657	0.773	0.908	0.356	0.441	0.788	0.685
REHTVYWEPRK [MAGEA4_Y240_G241W]	1.08	1.39	0.724	1.1	2.31	1.39	8.8	1.19	0.831	3.77	4.33	2.42	1.85	0.607	5.92	0.888
RELGKYGLQAF [ALDH2_Y497_E496K_YF]	0.834	0.503	0.438	1	0.578	0.526	0.786	0.577	0.926	0.612	0.489	0.582	0.491	0.537	0.584	0.774
RETPLYKACER [ASB2_Y162]	1.42	1.27	0.855	0.777	0.457	0.457	1.02	0.573	1.13	0.527	0.441	0.759	0.568	0.504	0.577	0.632
RFLRGYEQDAF [HLA-A_Y137_R138E_YF]	0.894	0.746	0.765	0.935	0.466	0.636	0.778	0.555	1.21	0.536	0.498	0.586	0.533	0.51	0.629	1.36
RFLRGYHQDAF [HLA-A_Y137_R138H_YF]	0.935	0.614	0.53	1.66	0.578	0.569	1.33	0.622	0.886	0.645	0.591	0.628	0.81	0.569	0.553	0.815

Sequence	SH2 binding enrichment [1]	SH2 binding enrichment [2]	SH2 binding enrichment [3]	phosphorylation enrichment [4]	phosphorylation enrichment [5]	phosphorylation enrichment [6]	phosphorylation enrichment [7]	phosphorylation enrichment [8]	phosphorylation enrichment [9]	phosphorylation enrichment [10]	phosphorylation enrichment [11]	phosphorylation enrichment [12]	phosphorylation enrichment [13]	phosphorylation enrichment [14]	phosphorylation enrichment [15]	phosphorylation enrichment [16]
RFVVLYDAELT [ERCC4_Y581_YF]	1.61	1.31	0.837	1.58	0.841	0.657	0.876	1.15	1.9	0.979	1.38	0.763	0.807	0.672	0.91	1.72
RGNKEYEEEKR [LENG1_Y96]	0.863	0.739	0.538	0.723	0.407	0.534	0.458	0.493	0.756	0.314	0.519	0.686	0.323	0.394	0.737	0.822
RGRDSYGGPPR [RBMX_Y190]	1.1	0.82	0.519	0.744	0.604	0.721	0.934	0.613	0.734	0.632	0.427	0.563	0.8	0.589	0.64	0.557
RGRKVYLEGGF [PRIM2_Y201_D204G]	0.941	0.27	0.479	0.787	0.355	0.351	0.719	0.431	0.642	0.972	0.532	0.446	0.803	0.855	0.858	0.796
RGRSTYFWPSP [GAGE12J_Y9_R13S_YF]	0.557	0.524	0.491	0.669	0.49	0.511	0.711	0.621	0.564	0.947	0.468	0.615	0.505	0.504	0.824	0.673
RGYRVYYTPDS [PTPRF_Y450]	0.707	1.27	5.05	1.22	0.784	0.979	1.3	1.04	1.07	3.59	1.24	0.634	0.947	1.11	1.37	1.93
RHEASYSSDSE [REPS1_Y116_A113E]	0.861	0.686	0.634	1.03	0.722	0.845	0.662	0.591	1.19	0.461	0.837	0.841	0.427	0.777	0.954	0.784
RHLREYPDLLN [DES_Y388_Q389P]	1.25	0.878	1.09	0.695	0.584	0.389	0.404	0.463	0.822	0.569	0.375	0.71	0.453	0.352	0.53	0.73
RHLREYQDLLI [DES_Y388_N393I]	1.59	0.851	1.79	0.912	0.899	0.655	0.708	0.744	1.21	0.482	1.02	0.813	0.482	0.636	0.592	0.74
RHPEVYHHLGV [NVL_Y290]	1	1.17	1.05	0.778	1.08	0.419	0.701	0.419	0.787	0.537	2.11	0.602	0.632	0.423	1.09	0.823
RHPLEYLRQFP [NARS2_Y138_YF]	1.49	1.28	0.984	0.605	0.369	0.342	0.554	0.494	0.612	0.33	0.372	0.365	0.409	0.275	1.38	0.66
RIVTTYIWERE [DNM2_Y463_R465W]	1.16	0.846	0.909	1.82	0.595	0.712	0.745	0.455	1.31	0.403	0.526	0.862	0.405	0.538	0.619	0.989
RKKEEYKMAPF [F8_Y1990_L1994P_YF]	1.06	0.905	0.407	0.574	0.602	0.558	0.371	0.261	0.623	0.422	0.299	0.446	0.469	0.346	0.373	0.316
RLIEGYTGPFK [ZNF862_Y181]	0.808	0.862	0.472	1.59	1.13	1.1	1.12	0.927	1.75	1.23	1.07	1.29	1.29	1.21	1.3	1.79
RLLRGYDQFAF [HLA-B_Y137_H137Y_YF]	1.16	1.25	0.999	0.885	0.617	0.591	0.798	0.725	1.21	0.645	0.505	0.627	0.542	0.696	0.664	0.785
RLLVDYPWTQR [HBB_Y36_V35D]	0.883	0.884	0.554	0.978	0.544	0.616	0.465	0.542	0.759	0.411	0.591	0.75	0.351	0.45	0.476	0.516
